# B1: TPR t1 (parent)
# chain: GACCAAUCUGCCCUCAGAGCUCGAGAACAUCUUCGGAUGCAGAGGAGGCAGGCUUCGGUGGCGCGAUAGCGCCAACGUCCUCAACCUCCAAUGCAUCCCACCACAUGAUGAUGCCUGAAGAGCCUUGGUUUUUUG
# Variants of: B1
# Experiment: polymerase ribozyme fitness, log enrichment relative to wild type (log ratio); higher = more active; in vitro selection for triplet polymerase activity
# Outline: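 Mutant libraries of both subunits of a heterodimeric triplet polymerase ribozyme were PCR-built, transcribed, and selected once in triplicate, with frozen incubation at −7 °C and capture of gel-excised extended constructs on streptavidin beads before RT-PCR. Illumina sequencing of input and output libraries was filtered to genotypes with ≥10 input reads and ≥1 read per output. Fitness is the logarithm of genotype enrichment over wild-type enrichment, using inverse-variance-weighted replicate averages. The logarithm is base 2.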
row,Variant,polymerase ribozyme fitness (log ratio)
1,GACCAAUCUGCCCUCAGAGCUUGAGAACAUCUUCGGGUGCAGAGGAGGCAGGCUUCGGUGCCGAGAUAGCGCCAACGUCCUCAACCUCCAAUGCAUCCCACCACAUGAUGACGCCUGAAGAGCCUGGAUUUUUUG,-6.8
2,GACCAAUCUGCCCUCAGAGCUGGAGAACAUCUUCGGAUGCAUAGGAGGCAGGCUUCGGUGGCGCGAUAGCGCCAACGUCCUCAACCUCCAAUGCAUCCCACCACAUGAUGAUGCCUGAAGAGCCUUGGUUUUUUG,-4.63
3,GACCAAUCUGCCCUCAGAGCUUGAGAAUAUCUUCGGAUGCAGAGGAGGCAGGCUUCGGUGGCGCGAUAGCGCCAACGUCCUCAACCUGCAAUGCAUCCCACCACAUGAUGAUGCCUGAAGAGCCUUGGUUUUUUG,-7.29
4,GACCAAUCUGCCCUCAGAGCUGGAGAACAUCUUCGGAUGCAGAGGAGGCAGGCUUCGGUGGCGCGAUAGCGCCAACGUCCUCAACCUCCAAUGCAUCCCACCACAUGAUGAUGCCUAAGGAGCCUUGGUUUUUUG,-1.55
5,GACCAAUCUGCCCUCAGAGCUGGAGAACAUCUUCGGAUACAGAGGAGGCAGGCUUUGGUGGCGCGAUAGCGCCAACGUCCUCAACCUCCAAUGCAUCCCACCACAUGAUGAUGCCUGAAGAGCCUUGGUUUUUUG,-3.12
6,GACCAAUCUGCCCUCAGAGCUGGAGAACAUCUUCGGAUGCAGAGGAGGCAGGCUUCGGUGGCACGAUAGCGCCAACGUCCUCAACCUCCAAUGCAUCCCACCACAUGAUGAUGCCUGAAGAGCCUUGGUUUUUUG,-4.12
7,GACCAAUCUGCCCUCAGAGCUGGAGAACAUCUUCGGAUGCAGAGGAGCCAGGCUUCGGUGGCGCGAUAGCGCCAACGUCCUCAAGCUCCAAUGCAUCCCACCACAUGAUGAGGCCUGAAGAGCCUUGGUUUUUUG,-3
8,GACCAAUCUGCCCUCAGAGCUUGAGAACAUCUUCGGAUGCAGAGGAGGCAGGCUUCGGUGGCGCGAUAGCGCCAACGUCCUCAACCUCCAAUGCGUCCCACCACAUGAUGAUGCCUGAAGAGCCUUGGUUUUUUG,-3.7
9,GACCAAUCUGCCCUCAGAGCUGGAGAACAUCGUCGGAUGCAGAGGAGGCAGGCUUCGGUGGCGCGAUAGGGCCAACGUCCUCAACCUCCAAUGCAUCCCACCACAUGAUGAUGCCUGAAGAGCAUUGGUUUUUUG,-5.41
10,GACCAAUCUGCCCUCAGAGCUGGAGAACAUCUUCGGAGGCAGGGGAGGCAGGCUUCGGUGGCGCGAUAGCGCCAACGUCCUCAACCUCCAAUGCAUCCCACCACAUGAUGAUUCCUGAGGAGCCUUGGUUUUUUG,-4.22
11,GACCAAUCUGCCCUCAGAGCUGGAGAACAUCUUCGGAUGCAGAGGAGGCAGGCUUCGGUGGCGCGAUAGCGCCAACGUCCUCAACCUCCAAUGCAUCCCACCACAGGAUGAUGCCUGAAGAGCCUUGGUUUUUUG,-3.47
12,GACCAAUCUGCCCUCAGAGCUGGAGAACAUCUUCGGAUGCAGAGGAGCCAGGCUUCGGUGGCGCGAUAGCGCCAACAUCCUCAAGCUCCAAUGCAUCCCACCACAUGAUGAGGCCUGAAGAGCCUUGGUUUUUUG,-3.5
13,GACCAAUCUGCCCUCAGAGCUGGAGAACAUCUUCGGAUGCAGAGGAGGCAGGCUUCGGUGGCGCGAUAGCGCCAACGUCCUCAACCUCCAAUGCAUCCCACCACAUGAUGAUGCCUGAAGAGCCUUGGUUUAUUG,-3.21
14,GACCAAUCUGCCCUCAGAGCUGGAGAACAUCUUCGGAUGCAGAGGAGGCAGGCUUCGGUGGCGCGAUAGCGCCAACGUCCUCAACCUCCAAUGCAUCCCACCACAUGAUCAUGCCUGAAGAGGCUUGGUUUUUUG,-5.98
15,GACCAAUCUGCCCUCAGAGCUGGAGAACAUCUUCGGAUGCAGAGGAGGCAGGCUUCGGUGCCGCGAUCGCGCCAACGUCCUCAACCUCCAAUGCAUCCCACCACAUGAUGAUGCCUGAAGAGUCUUGGUUUUUUG,-6.92
16,GACCAAUCUGCCCUCAGAGCUGGAGAACAUCUUCGGAGGCAGAGGAGGCAGGCUUCGGUGGCGCGAUAGCGCCAACGUCCUCAACCACCAAUGCAUCGCACCACAUGAUGACGACUGAAGAGCCUUGGUUUUUUG,-6.53
17,GACCAAUCUGCCCUCAGAGCUUGAGAACAUCUUUGGAUGCAGAGGAGGCAGGCUUCGGUGGCGCGAUAGCGCCAACGUCCUCCACCUCCAAUGCAUCCCACCACAUGAUGAUGCCUGAAGAGCGUUGGUUUUUUG,-5.96
18,GACCAAUCUGCCCUCAGAGCUGGAGAACAUCUUCGGAUGCAGAGGAGGCAGGCUUCUGUGGCGCGAUAGCGCCAACGUCCUCAACCUCCAACGCAUCCCUCCAAAUGAUGAUACCUGAAGAGCCUUGGUUUUUUG,-7.69
19,GACCAAUCUGCCCUCAGAGCUGGAGAACAUCUUCGGAUGCAGAGGAGGCAGGCUUCGGUGUCGCGAUAGCGCCAACGUCCUCAACCUCCAAUGCAUCCCACCACAUGAUGAUGCCUGAAGAGCAUUGGUUUUUUG,-1.97
20,GACCAAUCUGCCCUCAGAGCUUGAGAACAUCUUCGGAUGCAGAGGAGGCAGGCUUCGGUGGCGCGAUAGCGCCUACGUCCUCAACCUCCAAUGCAUCCCAACACAUGAUGAUGCCUGAAGAGCCUUGGUUUUUUG,-5.04
21,GACCAAUCUGCCCUCAGAGCUGGAGAACAUCUUCGGAUGCAGAGGAGGCAGGCUUCGGUGGCGCGAUAACGCCAACGUCCUCAACCUCCUAUGCAUCCCACCACAAGAUGUUGCCUGAAGAGCCUUGGUUUUUUG,-4.92
